Test results from patent US20250109201A1 (AGENUS, published 2025).
Substitutions are numbered along the chain they refer to.

B1: BA212 (antibody, human IgG1, kappa, N297A, V domains shown)
VH: QVQLVQSGAEVKKPGASVKVSCKASGYTFNRYYMHWVRQAPGQGLEWMGWINPYTGGTNYAQKFQGRVTMTRDTSISTAYMELSRLRSDDTAVYYCASKQPSSDYWGQGTLVTVSS
VL: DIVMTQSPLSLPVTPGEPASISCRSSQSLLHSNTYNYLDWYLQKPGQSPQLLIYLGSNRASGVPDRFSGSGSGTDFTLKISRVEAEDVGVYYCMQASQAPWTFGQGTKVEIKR
B2: BA213 (antibody, human IgG1, kappa, N297A, V domains shown)
VH: B1 VH
VL: not shown
B3: BA216 (antibody, human IgG1, kappa, N297A, V domains shown)
VH: B1 VH
VL: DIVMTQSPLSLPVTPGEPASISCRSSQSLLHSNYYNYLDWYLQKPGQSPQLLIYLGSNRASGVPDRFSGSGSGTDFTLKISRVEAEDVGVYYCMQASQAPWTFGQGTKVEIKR
B4: BA217 (antibody, human IgG2, kappa)
heavy: QVQLVQSGAEVKKPGASVKVSCKASGYTFNRYYMHWVRQAPGQGLEWMGWINPYTGGTNYAQKFQGRVTMTRDTSISTAYMELSRLRSDDTAVYYCASKQPSSDYWGQGTLVTVSSASTKGPSVFPLAPCSRSTSESTAALGCLVKDYFPEPVTVSWNSGALTSGVHTFPAVLQSSGLYSLSSVVTVPSSNFGTQTYTCNVDHKPSNTKVDKTVERKCCVECPPCPAPPVAGPSVFLFPPKPKDTLMISRTPEVTCVVVDVSHEDPEVQFNWYVDGVEVHNAKTKPREEQFNSTFRVVSVLTVVHQDWLNGKEYKCKVSNKGLPAPIEKTISKTKGQPREPQVYTLPPSREEMTKNQVSLTCLVKGFYPSDIAVEWESNGQPENNYKTTPPMLDSDGSFFLYSKLTVDKSRWQQGNVFSCSVMHEALHNHYTQKSLSLSPGK
light: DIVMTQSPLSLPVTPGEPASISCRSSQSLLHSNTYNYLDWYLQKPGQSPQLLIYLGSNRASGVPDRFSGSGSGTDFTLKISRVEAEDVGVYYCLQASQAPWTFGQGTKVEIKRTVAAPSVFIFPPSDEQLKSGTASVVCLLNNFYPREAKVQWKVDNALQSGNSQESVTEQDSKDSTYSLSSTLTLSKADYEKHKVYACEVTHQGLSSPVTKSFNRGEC
B5: BA219 (antibody, human IgG2, kappa)
heavy: B4 heavy with C130S
light: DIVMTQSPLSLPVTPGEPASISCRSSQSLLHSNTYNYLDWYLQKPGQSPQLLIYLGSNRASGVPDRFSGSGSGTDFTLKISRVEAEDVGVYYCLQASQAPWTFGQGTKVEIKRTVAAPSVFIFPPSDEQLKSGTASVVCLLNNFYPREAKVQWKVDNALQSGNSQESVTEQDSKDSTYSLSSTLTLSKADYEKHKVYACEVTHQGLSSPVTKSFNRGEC
B6: BA246 (antibody, human IgG2, kappa)
heavy: B4 heavy
light: not shown
B7: BA247 (antibody, human IgG2, kappa)
heavy: B4 heavy with C130S
light: not shown
B8: BA218 (antibody, human IgG2, kappa)
heavy: B4 heavy
light: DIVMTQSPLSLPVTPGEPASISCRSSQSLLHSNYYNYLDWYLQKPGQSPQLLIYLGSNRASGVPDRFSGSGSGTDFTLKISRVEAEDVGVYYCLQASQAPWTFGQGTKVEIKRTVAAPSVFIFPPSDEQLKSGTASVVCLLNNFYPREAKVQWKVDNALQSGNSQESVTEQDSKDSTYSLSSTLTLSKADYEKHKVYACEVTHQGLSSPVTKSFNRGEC
B9: BA220 (antibody, human IgG2, kappa)
heavy: B4 heavy with C130S
light: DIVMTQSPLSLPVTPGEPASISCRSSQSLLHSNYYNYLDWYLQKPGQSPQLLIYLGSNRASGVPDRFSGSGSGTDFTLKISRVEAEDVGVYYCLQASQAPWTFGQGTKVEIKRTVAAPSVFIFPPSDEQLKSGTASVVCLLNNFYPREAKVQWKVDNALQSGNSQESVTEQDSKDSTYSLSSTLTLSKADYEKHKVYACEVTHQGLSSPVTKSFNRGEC

What was measured:
[1] = target: T1, ECD-His tagged human ILT2 haplotype PE01 (human, UniProt Q8NHL6 24-458); assay: SPR, captured antibody, ILT2 ECD-His analyte
T1 construct: also called Human ILT2 PE01 ECD; LILRB1/ILT2 PE01; not shown: His tag
T1 sequence (Q8NHL6 24-458): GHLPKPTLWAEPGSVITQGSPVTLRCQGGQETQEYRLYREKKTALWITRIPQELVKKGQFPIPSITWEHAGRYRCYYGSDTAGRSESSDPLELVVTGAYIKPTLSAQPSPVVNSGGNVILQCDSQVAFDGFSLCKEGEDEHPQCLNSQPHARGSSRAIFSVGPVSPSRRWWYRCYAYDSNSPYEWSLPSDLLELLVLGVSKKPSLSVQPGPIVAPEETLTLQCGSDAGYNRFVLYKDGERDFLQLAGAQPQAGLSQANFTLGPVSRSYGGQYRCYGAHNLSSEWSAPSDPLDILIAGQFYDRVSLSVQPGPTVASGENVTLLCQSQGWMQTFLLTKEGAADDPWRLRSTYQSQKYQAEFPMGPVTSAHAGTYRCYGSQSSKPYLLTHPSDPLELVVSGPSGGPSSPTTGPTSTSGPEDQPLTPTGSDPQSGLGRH
Method: (§1) The binding affinity of anti-ILT2 antibody variants with IgG1 N297A constant regions to ECD-His tagged human ILT2 haplotypes PE01, PE02, PE03 (see Table 1) was assessed by surface plasmon resonance (SPR).
(§2) Briefly, SPR experiments were performed using a Biacore T200 instrument, and the association rate (Kₐ), dissociation rate (Kd), and dissociation constant (KD) were calculated from each experiment using a 1:1 binding model with Biacore™ T200 Evaluation Software. Capture of antibodies from the Human Fab Capture kit (28958325, GE Healthcare) to the Series S CM5 sensor chip (29149603, GE Healthcare) was performed using the immobilization wizard for amine coupling from the Biacore™ control panel and following the manufacturer's recommendations included with the kit.
(§3) Approximately 3 μg/mL of tested anti-ILT2 antibodies and controls diluted in a running buffer (10 mM HEPES, 150 mM NaCl, 3 mM EDTA, and 0.05% surfactant P20) were captured in individual flow cells of previously prepared anti Human Fab CM5 chip, keeping a single flow cell as a reference. Antibodies were captured using a 30 sec injection at a flow rate of 10 μL/min to reach about 150 resonance units (Rus). Human ILT2 ECD PE01 (diluted in the running buffer at the concentration of 30, 10, 3.3, 1.11, 0.37, 0.12 nM), and human ILT2 ECD PE02 and PE03 (diluted in the running buffer at the concentration of 33.3, 11.1, 3.7, 1.2, 0.41, 0.14 nM), were flowed over the chip surface at a flow rate of 30 μL/min with a 3-min association phase and a 10-min dissociation phase. The sensor chip was regenerated between cycles with a double 30-sec injection of 10 mM glycine, pH 2.1 at 30 μL/min followed by stabilization period of 60s. Sensorgrams were evaluated and fit to a simple Langmuir 1:1 interaction model using the global data analysis option of BIAevaluation 3.1 software. Data quality was verified by visually inspecting deviations and curve fitting, and by evaluating the parameters of Rₘₐₓ, Chi2, and Tc.

[2] = target: T2, ECD-His tagged human ILT2 haplotype PE02 (human, UniProt Q8NHL6 24-458); assay: SPR, captured antibody, ILT2 ECD-His analyte
T2 construct: also called Human ILT2 PE02 ECD; not shown: His tag
T2 sequence (Q8NHL6 other isoform, or with tags, fused parts or gaps): as the sequence (Q8NHL6 24-458) above, with L45P, A70T, I119T, S132I counted along it
Method: as §1, §2, §3

[3] = target: T3, ECD-His tagged human ILT2 haplotype PE03 (human, UniProt Q8NHL6 24-458); assay: SPR, captured antibody, ILT2 ECD-His analyte
T3 construct: also called Human ILT2 PE03 ECD (Sino biological, 16014-H08H); not shown: His tag
T3 sequence (Q8NHL6 other isoform, or with tags, fused parts or gaps): as the sequence (Q8NHL6 24-458) above, with L45P, I119T, S132I counted along it
Method: as §1, §2, §3

[4] = target: T4, human ILT2 extracellular and transmembrane domains expressed on CHO cells (human, UniProt Q8NHL6 24-482, limits assumed); assay: flow cytometry, CHO cells with low human ILT2
T4 construct: domain: extracellular and transmembrane domains; which one is told under assay; also called CHO cells expressing human ILT2 (relatively low or relatively high level); CHO-ILT2 cells
T4 sequence (Q8NHL6 24-482 limits assumed): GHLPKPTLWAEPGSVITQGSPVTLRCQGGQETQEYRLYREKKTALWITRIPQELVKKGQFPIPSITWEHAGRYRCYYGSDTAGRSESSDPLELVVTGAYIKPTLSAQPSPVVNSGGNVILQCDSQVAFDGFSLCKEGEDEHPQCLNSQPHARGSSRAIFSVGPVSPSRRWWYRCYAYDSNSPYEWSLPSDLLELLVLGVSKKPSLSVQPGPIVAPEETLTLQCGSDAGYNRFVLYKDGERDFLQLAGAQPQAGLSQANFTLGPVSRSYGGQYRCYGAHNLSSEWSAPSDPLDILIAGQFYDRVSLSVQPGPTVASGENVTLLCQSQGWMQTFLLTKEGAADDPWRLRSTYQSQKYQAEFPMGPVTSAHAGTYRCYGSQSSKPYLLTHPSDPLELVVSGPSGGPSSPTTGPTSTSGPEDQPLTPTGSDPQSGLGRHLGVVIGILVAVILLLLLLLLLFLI
Method: For the antibody binding assay, the cells were seeded in a 96-well U-bottom tissue culture plate at a density of 3×10⁵ cells per well in 25 μL of PBS supplemented with 0.5% BSA, 1 mM EDTA and 0.05% sodium azide (FACS Buffer). The cells were incubated for 30 minutes at 4° C. with 25 μL of a series dilution of anti-ILT2 antibodies or isotype control, at final concentrations ranging from 10 μg/mL to 0.2 ng/mL in FACS Buffer.
After a 30-minute incubation in the dark at 4° C., the cells were washed twice with cold FACS Buffer, and the cells were analyzed by flow cytometry (BD LSR Fortessa Flow Cytometer). CHO cells were identified using a plot of forward scatter-area (FSC-A) versus side scatter area (SSC-A) and another plot of FSC-A versus forward scatter-height (FSC-H) for selection of single cells. Samples were analyzed by sequentially gating on the single cell population and plotting histograms representing the fluorescence in the PE channel. For each sample, mean fluorescence intensity (MFI) was calculated, and the data were plotted by GraphPad Prism software.

[5] = target: T5, full-length ILT2 expressed on Jurkat cells (human, UniProt Q8NHL6 24-650); assay: flow cytometry, Jurkat cells expressing human ILT2
T5 construct: whole, on cells; The Jurkat line also carries FcgRIIIa and an NFAT-luciferase reporter (Promega/G7102); also called Jurkat cells expressing human ILT2; ILT2-expressing Jurkat reporter cells
T5 sequence (Q8NHL6 24-650): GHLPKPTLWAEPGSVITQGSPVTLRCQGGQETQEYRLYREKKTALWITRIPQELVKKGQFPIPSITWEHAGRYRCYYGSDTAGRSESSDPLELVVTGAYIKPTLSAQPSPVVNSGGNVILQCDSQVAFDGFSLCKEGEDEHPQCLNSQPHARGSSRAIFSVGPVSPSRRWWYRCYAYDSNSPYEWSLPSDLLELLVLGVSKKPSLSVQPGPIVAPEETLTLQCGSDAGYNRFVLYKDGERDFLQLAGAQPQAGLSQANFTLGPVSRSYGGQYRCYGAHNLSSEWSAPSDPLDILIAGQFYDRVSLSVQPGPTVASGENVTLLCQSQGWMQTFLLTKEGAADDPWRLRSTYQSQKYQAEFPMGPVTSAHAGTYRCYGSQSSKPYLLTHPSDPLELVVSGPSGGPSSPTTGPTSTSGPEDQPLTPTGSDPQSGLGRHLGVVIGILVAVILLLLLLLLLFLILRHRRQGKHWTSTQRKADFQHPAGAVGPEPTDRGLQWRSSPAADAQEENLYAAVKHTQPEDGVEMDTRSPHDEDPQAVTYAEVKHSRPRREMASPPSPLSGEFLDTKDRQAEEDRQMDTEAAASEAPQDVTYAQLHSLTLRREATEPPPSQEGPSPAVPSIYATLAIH

[6] = target: T4, human ILT2 extracellular and …; assay: flow cytometry, CHO cells with high human ILT2
Method: For the antibody binding assay, the cells were seeded in a 96-well U-bottom tissue culture plate at a density of 3×10⁵ cells per well in 25 μL of PBS supplemented with 0.5% BSA, 1 mM EDTA and 0.05% sodium azide (FACS Buffer). The cells were incubated for 30 minutes at 4° C. with […] of a series dilution of anti-ILT2 antibodies or isotype control at concentrations from 10 μg/mL to 2.4 ng/mL in FACS Buffer.
After a 30-minute incubation in the dark at 4° C., the cells were washed twice with cold FACS Buffer, and the cells were analyzed by flow cytometry (BD LSR Fortessa Flow Cytometer). CHO-ILT2 cells were identified and MFI was calculated as above.

[7] = target: T1, ECD-His tagged human ILT2 haplotype PE01; assay: SPR, ILT2 PE01 ECD-His, average of two measurements
Method: as §2
Variants of irrelevant antibody VRC01 (with IgG1, IgG1 N297A, IgG4 S228P, IgG2, or IgG2 C127S constant regions) were used as negative isotype controls. The binding kinetics are shown in Table 5 as an average from two independent measurements.

Binder | Kd [1] | koff [1] | kon [1] | Kd [2] | koff [2] | kon [2] | Kd [3] | koff [3] | kon [3] | AUC [4] | EC50 [4] | AUC [5] | EC50 [5] | AUC [6] | EC50 [6] | Kd [7] | koff [7] | kon [7]
B1 | 0.089 nM | 3.3e-06 s⁻¹ | 37000 M⁻¹ s⁻¹ | 0.783 nM | 0.00021 s⁻¹ | 270000 M⁻¹ s⁻¹ | 0.875 nM | 0.0004 s⁻¹ | 460000 M⁻¹ s⁻¹ | 15100 | 0.087 µg/mL | 222000 | 0.057 µg/mL | – | – | – | – | –
B2 | 0.033 nM | 1.1e-05 s⁻¹ | 320000 M⁻¹ s⁻¹ | 0.63 nM | 0.00015 s⁻¹ | 230000 M⁻¹ s⁻¹ | 0.149 nM | 7.5e-05 s⁻¹ | 500000 M⁻¹ s⁻¹ | 13600 | 0.175 µg/mL | 189000 | 0.11 µg/mL | – | – | – | – | –
B3 | 0.185 nM | 6.7e-05 s⁻¹ | 360000 M⁻¹ s⁻¹ | 0.617 nM | 0.00014 s⁻¹ | 230000 M⁻¹ s⁻¹ | 0.317 nM | 8.5e-05 s⁻¹ | 270000 M⁻¹ s⁻¹ | 14400 | 0.078 µg/mL | 199000 | 0.07 µg/mL | – | – | – | – | –
B4 | – | – | – | – | – | – | – | – | – | – | – | – | – | 264000 | 0.248 µg/mL | 0.17 nM | 5.4e-05 s⁻¹ | 340000 M⁻¹ s⁻¹
B5 | – | – | – | – | – | – | – | – | – | – | – | – | – | 307000 | 0.183 µg/mL | 0.14 nM | 4.8e-05 s⁻¹ | 350000 M⁻¹ s⁻¹
B6 | – | – | – | – | – | – | – | – | – | – | – | – | – | – | – | 0.23 nM | 7.4e-05 s⁻¹ | 330000 M⁻¹ s⁻¹
B7 | – | – | – | – | – | – | – | – | – | – | – | – | – | – | – | 0.31 nM | 9.7e-05 s⁻¹ | 330000 M⁻¹ s⁻¹
B8 | – | – | – | – | – | – | – | – | – | – | – | – | – | 295000 | 0.227 µg/mL | 0.19 nM | 7e-05 s⁻¹ | 390000 M⁻¹ s⁻¹
B9 | – | – | – | – | – | – | – | – | – | – | – | – | – | 305000 | 0.282 µg/mL | 0.14 nM | 5.7e-05 s⁻¹ | 420000 M⁻¹ s⁻¹
